Measured values published in paper PMC11952846, “The sterol-regulating human ARV1 binds cholesterol and phospholipids through its conserved ARV1 homology domain” (The Journal of Biological Chemistry, 2025).

T1: 6XHIS-ARV1 (full-length human ARV1, N-terminal 6XHIS tag) (human, UniProt Q9H2C2 1-271)
T1 construct: human ARV1, 271 amino acids, full length, expressed from pET-28a(+)-6XHIS-ARV1; also called hARV1; not shown: 6XHIS, N-terminal, kept
T1 sequence (looked up): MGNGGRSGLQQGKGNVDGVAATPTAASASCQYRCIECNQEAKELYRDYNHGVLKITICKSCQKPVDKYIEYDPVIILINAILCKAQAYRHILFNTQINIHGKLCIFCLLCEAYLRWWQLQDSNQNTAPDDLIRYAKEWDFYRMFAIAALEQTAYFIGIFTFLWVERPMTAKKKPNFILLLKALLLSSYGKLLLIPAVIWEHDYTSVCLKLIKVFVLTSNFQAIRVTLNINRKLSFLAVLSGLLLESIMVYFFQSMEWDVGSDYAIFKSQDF

B1: GST-ARV1-N90 (domain or fragment, human, UniProt Q9H2C2 1-90, looked up)
chain: MGNGGRSGLQQGKGNVDGVAATPTAASASCQYRCIECNQEAKELYRDYNHGVLKITICKSCQKPVDKYIEYDPVIILINAILCKAQAYRH
notes: human ARV1, amino-terminal 90 amino acids, expressed from pGEX-4T1-GST-N90; also called GST-N90; source: E. coli BL21, purified (glutathione beads); not shown: GST, N-terminal, kept
B2: E. coli expressed purified full-length ARV1 (sucrose density gradient) (natural protein, human, UniProt Q9H2C2 1-271, looked up)
chain: MGNGGRSGLQQGKGNVDGVAATPTAASASCQYRCIECNQEAKELYRDYNHGVLKITICKSCQKPVDKYIEYDPVIILINAILCKAQAYRHILFNTQINIHGKLCIFCLLCEAYLRWWQLQDSNQNTAPDDLIRYAKEWDFYRMFAIAALEQTAYFIGIFTFLWVERPMTAKKKPNFILLLKALLLSSYGKLLLIPAVIWEHDYTSVCLKLIKVFVLTSNFQAIRVTLNINRKLSFLAVLSGLLLESIMVYFFQSMEWDVGSDYAIFKSQDF
notes: human ARV1, full length; detected with anti-ARV1 antibodies; also called purified ARV1; source: E. coli, purified

Legend:
[1] = biological target: T1, 6XHIS-ARV1 (full-length human ARV1, …); assay: far-Western, overlay or dot blot; GST, GST-ARV1 truncations and 6XHIS-ARV1 dotted onto nitrocellulose, incubated with 6XHIS-ARV1 protein, probed with anti-6XHIS (and anti-GST) antibodies; conditions: both partners purified
[2] = biological target: the molecule itself; assay: sucrose density gradient centrifugation; 2.5 to 25% sucrose gradient in PBS, 132,000g for 19 h; fractions by SDS-PAGE and western with anti-ARV1; markers ovalbumin (50 kDa), bovine serum albumin (77 kDa), phosphorylase (103 kDa)

Row | Binder | binding result [1] | stoichiometry N [2]
1 | B1 | binds | –
2 | B2 | – | 2
